Values quoted from earlier work in PMC7878404.

Biological target: Bex1 50-75 (UniProt Q9R224)
Sequence of UniProt Q9R224 (Q9R224 50-75): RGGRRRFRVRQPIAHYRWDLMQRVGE

For OMP (from UniProt P08523), the Kd is listed as 150 µM.
